Measurements published in article doi:10.1101/2023.05.22.541692.

Target: AtCYT6-CTD (C-terminal cystatin domain of phytocystatin 6) (UniProt Q8H0X6)
Experiment: Enzyme inhibition kinetics
Details: pH 5.5; 25 °C; 100 mM NaCl; 20 mM citric acid pH 5.5

Chain of UniProt Q8H0X6 (Q8H0X6 whole entry, the tested form may be a part): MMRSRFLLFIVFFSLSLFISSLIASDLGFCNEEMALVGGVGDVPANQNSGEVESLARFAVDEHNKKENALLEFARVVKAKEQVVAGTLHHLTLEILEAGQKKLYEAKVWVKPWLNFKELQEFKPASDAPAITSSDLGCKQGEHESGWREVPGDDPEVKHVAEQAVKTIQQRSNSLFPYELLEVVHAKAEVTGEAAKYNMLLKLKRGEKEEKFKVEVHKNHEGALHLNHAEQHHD

Substance: AtLEGβ (legumain isoform β, vacuolar processing enzyme β), activated catalytic domain
- Ki: 0.61 ± 0.23 nM
